According to patent publication US6190920A, “Method for detecting enzyme catalyzed cyclization” (The Regents of the University of California, priority 1997, dated 2001):
Where a name gives a salt, the structure may show the parent alone. Values belong to the molecule of their own block, whether it stands above or below them. *1 amine or outer side, *2 acyl side, *3 side chain or, on linkers, in order; H or OH if unused. Where a SMILES comes first, the peptide text is derived from it. Bridges are numbered along the chain shown (N, C = ends). Where no end group is shown, it is not given here. [ ]: non-standard residue; d: D form. The star is where a group is joined. X2 = CCN(CCN([C@@H](Cc1ccc(O)cc1)C(=O)[*:2])[*:1])c1ccc(N=Nc2ccc([N+](=O)[O-])cc2)cc1; X1 = NC(=O)CCCC(=O)*

Assays:
Type in all cases: biochemical, bovine
Trypsin [1] = biological target: T1, Trypsin (Bos taurus, UniProt P00760); test: Trypsin assay (L-BAPNA hydrolysis, absorbance at 410 nm); conditions: 5% DMSO
T1 construct: Trypsin (from bovine pancrease, Type I, ethanol precipitate); purchased Sigma Type I (catalogue number not given); host or cells: bovine pancreas
T1 sequence (P00760 24-246): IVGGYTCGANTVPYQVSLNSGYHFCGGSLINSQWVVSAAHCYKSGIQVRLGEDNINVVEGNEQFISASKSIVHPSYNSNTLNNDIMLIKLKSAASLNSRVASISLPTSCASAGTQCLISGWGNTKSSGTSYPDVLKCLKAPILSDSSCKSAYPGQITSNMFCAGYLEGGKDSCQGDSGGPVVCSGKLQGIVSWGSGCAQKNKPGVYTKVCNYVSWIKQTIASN
Procedure: (§1) Reagents and solvents were obtained from commercial suppliers and used as received. Trypsin (from bovine pancrease, Type I, ethanol precipitate) and N-α-benzoyl-L-arginine-p-nitroanilide, hydrochloride were obtained from Sigma®. All moisture- or air-sensitive reactions were conducted under nitrogen in dried solvents. Unless otherwise indicated, chromatography was performed on silica gel with the indicated solvent as eluant. […]
All assays were performed at 37° C. on a Kontron Uvikon 860 UV-Vis spectrophotmeter. The forward reaction rate was measured by monitoring the absorbance change at 410 nm of the para-nitroanilide produced ( e=8800 M^-1 cm^-1 at 410 nm) at 30 sec intervals for 15 min. The concentrations of inhibitor solutions were determined spectrophotometrically from Disperse Red 1's extinction coefficient of 15,562 M^-1 cm^-1 at 490 nm. […] Inhibition constants (Ki 's) were determined from the slope of the V0 /v vs. [inhibitor] plots where the slope=1/Ki (1 +[L-BAPNA]/Km) and Km =2.0 +/-0.3 mM, V0 =rate in the absence of inhibitor and v=rate in the presence of inhibitor. […]

Trypsin [2] = biological target: T1, Trypsin; test: Trypsin-catalyzed cyclization of acyclic compound, products determined; conditions: 30:30:40 DMF/ethanol/pH 6.5 Tris buffer
Procedure: The structure was determined conventionally.
The compound of Formula III SEQ ID NO: 1 where L is a resin linker was treated in the same manner, and the resin component removed. […] Therefore the material on the resin is accessible to the enzyme. A control experiment without the enzyme gave only starting material.
as §1

Trypsin [3] = biological target: T1, Trypsin; test: Dye retention on resin after trypsin treatment and cleavage of ester X; conditions: trypsin in 30:30:40 DMF/ethanol/pH 6.5 Tris buffer, then 1:1 methanol/1M sodium hydroxide, filtered and washed
Source text: The compound of formula (3) is soluble; the compounds of formula (4) and (5) are not, as a consequence of their attachment to a resin. Therefore, whether or not cyclization has taken place, a solid insoluble product will remain, which can be filtered off and purified by washing. However, if cyclization has taken place and a product of formula (5) has been formed, the dye will still be attached to the resin, which consequently is visibly colored, or is visible under UV or by fluorescence, depending upon the dye used. If cyclization has not taken place and products of formula (3) and (4) have been formed, the dye will be seen in the filtrate and the insoluble resin material will be colorless.
The specific analogs that afford positive results in this screen may be then identified by conventional analysis of the material that is isolated from the resin beads by cleaving the bond linking the material to the resin beads. […]

- Ki (Trypsin [1]; 37° C., 100 mM TRIS/10 mM CaCl2 pH=8.0, substrate L-BAPNA, average value of 3 separate determinations, read-out: inhibition constant Ki): 230 nM
Molecule: CCN(CCN1C(=O)[C@H](CC(C)C)NC(=O)[C@H](CO)NC(=O)[C@H](CCCNC(=N)N)NC(=O)[C@@H](NC(=O)CCCC(N)=O)[C@@H](C)OC(=O)[C@H](C(C)C)NC(=O)[C@@H]1Cc1ccc(O)cc1)c1ccc(N=Nc2ccc([N+](=O)[O-])cc2)cc1 [macrocyclic analog] (X1-TRSL[X2]V; ester 1-C)

Molecule: NC(N)=NCCCC(NC(=O)c1ccccc1)C(=O)Nc1ccc([N+](=O)[O-])cc1 [L-BAPNA, N-α-benzoyl-L-arginine-p-nitroanilide, hydrochloride, reference compound]
- Km (Trypsin [1]; 100 mM TRIS/10 mM CaCl2 (pH=8.0), Lineweaver-Burke and non-linear regression of initial rates): 2000 ± 300 µM

- cyclization by trypsin (Trypsin [2]): readily cyclized
Molecule: O-{N-[L-serinyl-L-leucyl]-N-[(4-nitrophenylazo)-2-aminophenylethyl-N-ethyl]-L-tyrosinyl-L-valinyl}-N-(glutaryl carboxamide)-L-threonyl-L-arginine, Methyl Ester (SLYVTR-OMe; also: depsipeptide: Val ester-linked to Thr side-chain O, Tyr N-substituted with (4-nitrophenylazo)-2-aminophenylethyl-N-ethyl azo dye, Thr N-acylated with glutaryl carboxamide) [Ser--Leu--N(dye)--Tyr--Val--O--Thr(NH--C(O)--(CH2)3 CONH--L)--Arg--OR, R methyl, L hydrogen]

- cyclization by trypsin (Trypsin [2]): The same products A and B were obtained
- retention of dye colour on resin (Trypsin [3]): The color was retained on the resin
Molecule: O-{N-[L-Serinyl-L-leucyl]-N-[(4-nitrophenylazo)-2-aminophenylethyl-N-ethyl]-L-tyrosinyl-L-valinyl}-N-(glutaryl-photolinker-Tentagel-amide)-L-threonyl-L-arginine, Methyl Ester (SLYVTR-OMe; also: Tyr3 N-substituted with (4-nitrophenylazo)-2-aminophenylethyl-N-ethyl group, Val4-Thr5 ester bond via Thr side-chain OH, backbone changed)
